Patent US7169901 (Genentech, dated 2007)

Target: rhVEGF165 (human, UniProt P15692 27-191, limits assumed)
Test: cell-based or functional assay

Sequence of rhVEGF165 (P15692 other isoform, or with tags, fused parts or gaps limits assumed): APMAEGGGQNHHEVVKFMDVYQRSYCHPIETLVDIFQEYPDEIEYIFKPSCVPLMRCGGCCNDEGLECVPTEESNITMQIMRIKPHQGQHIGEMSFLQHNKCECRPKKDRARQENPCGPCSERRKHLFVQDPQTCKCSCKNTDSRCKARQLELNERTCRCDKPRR

- potency in inhibiting VEGF-induced HuVEC growth ([3H]-thymidine), relative to Y0192 Fab: 30 fold
B1: Y0313-1 (Fab, V domains shown)
VH: EVQLVESGGGLVQPGGSLRLSCAASGYDFTHYGMNWVRQAPGKGLEWVGWINTYTGEPTYAADFKRRFTFSLDTSKSTAYLQMNSLRAEDTAVYYCAKYPYYYGTSHWYFDVWGQGTL
VL: DIQLTQSPSSLSASVGDRVTITCRANEQLSNYLNWYQQKPGKAPKVLIYFTSSLHSGVPSRFSGSGSGTDFTLTISSLQPEDFATYYCQQYSTVPWTFGQGTKVEIKR
